Assay [1] concerns the target FBXO11 (UniProt Q86XK2). The experiment in a line: co-IP with anti-HA. Particulars: reference: wild type; sites S11.
The target of assay [2] is FBXO11 (UniProt Q86XK2). The experiment in a line: co-IP of alanine scanning mutants. The settings on record: reference: wild type; sites S11.

With SNAIL (from UniProt O95863) S11V, the “binding against the reference” value in the assay with FBXO11 [1] is listed as “lost”.

SNAIL (from UniProt O95863) S11A: the “binding against the reference” value with FBXO11 [2] is recorded as “lost”.

The record behind these values is paper PMC4159622.
